Assay results published in article PMC3305808 (Molecular Microbiology, 2012).
Residue numbers refer to the chain shown, from its start. Names may count otherwise.

B1: λcIDB-AaTadZ (TadZ of Aggregatibacter actinomycetemcomitans fused to the N-terminal DNA-binding domain of λ cI) (natural protein)
chain: MLLLDQETITADSARTITVVSSRDDIQGEVAQTLRTRGLENIEIVKKDFFTSSDEISFSAEDTVGVIIDITHETNIKTIVERVFSVVPQNVWCCVIGDSDSISLSQKLLDEGILYFNSHTQLSQMVEKIILGVDIPRLRDTVKIAVLSCKGGIGASLISSHIANEIVSSKKIPVLLAQGPNGSQDLDLLFDKKLSGNVIEYAPNLDIFNGGLFELTPAATEKYNFIIYDQPIYNVKKDNFIGFLENYNNFVLVVERKIGSLRLAKQFLDECERIRSTSRKPIRTFVCISDNRLEAAKLMAKNDIETLIGSSIDAIIPYVKNTNTKTVLGINLGRDGKKEINSLMLKVIGAISRSSKPKEKQSLFSSFFTKLIKQ
B2: λcIDB-AaTadZ S156A (natural protein)
chain: B1 chain with S156A
B3: λcIDB-AaTadZ S156T (natural protein)
chain: B1 chain with S156T
B4: λcIDB-AaTadZ K150R (natural protein)
chain: B1 chain with K150R
B5: λcIDB-AaTadZ A155K (natural protein)
chain: B1 chain with A155K
B6: λcIDB-AaTadZ K150A (natural protein)
chain: B1 chain with K150A

Molecular target: the molecule itself
Assay: λ cI repressor fusion dimerization assay

Row | Protein | % repression of λpR-lacZ
1 | B1 | 60.1%
2 | B2 | 57.6%
3 | B3 | 53.7%
4 | B4 | 49%
5 | B5 | 49.7%
6 | B6 | 60.3%
